Source: patent US20230295310A1 (ABCELLERA BIOLOGICS, published 2023)
Where a chain is given by its changes, count along the chain named.

B1: GOMP001_bsAb_044 (bispecific antibody, human IgG1, kappa, L234A L235A)
heavy 1: EVQLVESGGGLVKTGGSLRLSCVASGFSFKKAWMNWVRKAPGKGLEWVGRIKRNTDGGTADYAAEVKGRFTLSRDDSKKTLFLQMNSLKTEDTAVYYCTTLDSSSYYVGYYYMDVWGKGTTVTVSSASTKGPSVFPLAPSSKSTSGGTAALGCLVADYFPEPVTVSWNSGALTSGVHTFPAVLQSSGLYSLSSVVTVPSSSLGTQTYICNVNHKPSNTKVDEKVEPKSCDKTHTCPPCPAPEAAGGPSVFLFPPKPKDTLMISRTPEVTCVVVDVSHEDPEVKFNWYVDGVEVHNAKTKPREEQYNSTYRVVSVLTVLHQDWLNGKEYKCKVSNKALPAPIEKTISKAKGQPREPQVYTLPPSREEMTDNQVSLTCLVKGFYPSDIAVEWESNGQPENNYKTTPPVLMSDGSFFLASKLTVDKSRWQQGNVFSCSVMHEALHNHYTQKSLSLSPG
light 1: RIQMTQSPSSVSASVGDRVTITCRASQDINNWLAWYQDKPGKAPKLLIYTASSLQSGVPSRFSGSGSGTDFTLTIGSLQPEDFATYYCQQAHSLPITFGQGTRLEIKRTVAAPSVFIFPPSDKQLKSGTARVVCLLNNFYPREAKVQWKVDNALQSGNSQESVTEQDSKDSTYSLSSTLTLSKADYEKHKVYACEVTHQGLSSPVTKSFNRGEC
heavy 2: QVQLVQSGAEVKKPGASVKVSCKASGYTFTSHWMHWVRYAPGQGLEWIGEFNPSNGRTNYNEKFKSKATMTVDTSTNTAYMELSSLRSEDTAVYYCASRDYDYDGRYFDYWGRGTLVTVSSASTKGPSVFPLAPSSKSTSGGTAALGCLVKDYFPEPVTVSWNSGALTSGVHTFPAVLQSSGLYSLSSVVTVPSSSLGTQTYICNVNHKPSNTKVDKKVEPKSCDKTHTCPPCPAPEAAGGPSVFLFPPKPKDTLMISRTPEVTCVVVDVSHEDPEVKFNWYVDGVEVHNAKTKPREEQYNSTYRVVSVLTVLHQDWLNGKEYKCKVSNKALPAPIEKTISKAKGQPRRPRVYTLPPSREEMTKNQVSLVCLVKGFYPSDIAVEWESNGQPENNYKTTPPVLDSDGSFFLYSVLTVDKSRWQQGNVFSCSVMHEALHNHYTQKSLSLSPG
light 2: DIQMTQSPSSLSASVGDRVTITCSASSSVTYMYWYQRKPGDAPKLLIYDTSNLASGVPSRFSGSGSGTDYTFTISSLQPEDIATYYCQQWSSHIFTFGQGTKVEIKRTVAAPSVFIFPPSDEQLKSGTASVVCLLNNFYPREAKVQWKVDNALQSGNSQESVTEQDSKDSTYSLSSTLTLSKADYEKHKVYACEVTHQGLSSPVTKSFNRGEC
B2: GOMP001_bsAb_045 (bispecific antibody, human IgG1, kappa, L234A L235A)
heavy 1: QVQLVQSGAEVKKPGASVKVSCKASGYTFTSHWMHWVRKAPGQGLEWIGEFNPSNGRTNYNEEFKSKATMTVDTSTNTAYMELSSLRSEDTAVYYCASRDYDYDGRYFDYWGQGTLVTVSSASTKGPSVFPLAPSSKSTSGGTAALGCLVADYFPEPVTVSWNSGALTSGVHTFPAVLQSSGLYSLSSVVTVPSSSLGTQTYICNVNHKPSNTKVDEKVEPKSCDKTHTCPPCPAPEAAGGPSVFLFPPKPKDTLMISRTPEVTCVVVDVSHEDPEVKFNWYVDGVEVHNAKTKPREEQYNSTYRVVSVLTVLHQDWLNGKEYKCKVSNKALPAPIEKTISKAKGQPREPQVYTLPPSREEMTDNQVSLTCLVKGFYPSDIAVEWESNGQPENNYKTTPPVLMSDGSFFLASKLTVDKSRWQQGNVFSCSVMHEALHNHYTQKSLSLSPG
light 1: B1 light 2 with D1R, R37D, D41K, E122K, S130R
heavy 2: EVQLVESGGGLVQPGRSLRLSCATSGFTFADYTMHWVRYAPGKGLEWVSGISWNSGSIDYADRVKGRFTISRDNAKKSLYLQMNSLRAEDTALYFCAKDSSGYGHYYFYYLDVWGRGTTVTVSSASTKGPSVFPLAPSSKSTSGGTAALGCLVKDYFPEPVTVSWNSGALTSGVHTFPAVLQSSGLYSLSSVVTVPSSSLGTQTYICNVNHKPSNTKVDKKVEPKSCDKTHTCPPCPAPEAAGGPSVFLFPPKPKDTLMISRTPEVTCVVVDVSHEDPEVKFNWYVDGVEVHNAKTKPREEQYNSTYRVVSVLTVLHQDWLNGKEYKCKVSNKALPAPIEKTISKAKGQPRRPRVYTLPPSREEMTKNQVSLVCLVKGFYPSDIAVEWESNGQPENNYKTTPPVLDSDGSFFLYSVLTVDKSRWQQGNVFSCSVMHEALHNHYTQKSLSLSPG
light 2: not shown
B3: GOMP001_bsAb_046 (bispecific antibody, human IgG1, kappa, L234A L235A)
heavy 1: EVQLVESGGGLVQPGRSLRLSCATSGFTFADYTMHWVRKAPGKGLEWVSGISWNSGSIDYADEVKGRFTISRDNAKKSLYLQMNSLRAEDTALYFCAKDSSGYGHYYFYYLDVWGKGTTVTVSSASTKGPSVFPLAPSSKSTSGGTAALGCLVADYFPEPVTVSWNSGALTSGVHTFPAVLQSSGLYSLSSVVTVPSSSLGTQTYICNVNHKPSNTKVDEKVEPKSCDKTHTCPPCPAPEAAGGPSVFLFPPKPKDTLMISRTPEVTCVVVDVSHEDPEVKFNWYVDGVEVHNAKTKPREEQYNSTYRVVSVLTVLHQDWLNGKEYKCKVSNKALPAPIEKTISKAKGQPREPQVYTLPPSREEMTDNQVSLTCLVKGFYPSDIAVEWESNGQPENNYKTTPPVLMSDGSFFLASKLTVDKSRWQQGNVFSCSVMHEALHNHYTQKSLSLSPG
light 1: not shown
heavy 2: B1 heavy 2
light 2: B1 light 2
B4: GOMP001_bsAb_049 (bispecific antibody, human IgG1, kappa, L234A L235A)
heavy 1: B2 heavy 1
light 1: B1 light 2 with D1R, R37D, D41K, E122K, S130R
heavy 2: QVQLVESGGGVVQPGRSLRLSCAASGFTFSTYGMHWVRYAPGKGLEWVAVIWYDGSHKYYADRVKGRFTISRDNSKKTLYLQMNSLRAEDTGIYYCARTGISGNMSYFYFDHWGRGILVTVSSASTKGPSVFPLAPSSKSTSGGTAALGCLVKDYFPEPVTVSWNSGALTSGVHTFPAVLQSSGLYSLSSVVTVPSSSLGTQTYICNVNHKPSNTKVDKKVEPKSCDKTHTCPPCPAPEAAGGPSVFLFPPKPKDTLMISRTPEVTCVVVDVSHEDPEVKFNWYVDGVEVHNAKTKPREEQYNSTYRVVSVLTVLHQDWLNGKEYKCKVSNKALPAPIEKTISKAKGQPRRPRVYTLPPSREEMTKNQVSLVCLVKGFYPSDIAVEWESNGQPENNYKTTPPVLDSDGSFFLYSVLTVDKSRWQQGNVFSCSVMHEALHNHYTQKSLSLSPG
light 2: not shown
B5: GOMP001_bsAb_050 (bispecific antibody, human IgG1, kappa, L234A L235A)
heavy 1: QVQLVESGGGVVQPGRSLRLSCAASGFTFSTYGMHWVRKAPGKGLEWVAVIWYDGSHKYYADEVKGRFTISRDNSKKTLYLQMNSLRAEDTGIYYCARTGISGNMSYFYFDHWGQGILVTVSSASTKGPSVFPLAPSSKSTSGGTAALGCLVADYFPEPVTVSWNSGALTSGVHTFPAVLQSSGLYSLSSVVTVPSSSLGTQTYICNVNHKPSNTKVDEKVEPKSCDKTHTCPPCPAPEAAGGPSVFLFPPKPKDTLMISRTPEVTCVVVDVSHEDPEVKFNWYVDGVEVHNAKTKPREEQYNSTYRVVSVLTVLHQDWLNGKEYKCKVSNKALPAPIEKTISKAKGQPREPQVYTLPPSREEMTDNQVSLTCLVKGFYPSDIAVEWESNGQPENNYKTTPPVLMSDGSFFLASKLTVDKSRWQQGNVFSCSVMHEALHNHYTQKSLSLSPG
light 1: not shown
heavy 2: B1 heavy 2
light 2: B1 light 2
B6: GOMP001_bsAb_051 (bispecific antibody, human IgG1, kappa, L234A L235A)
heavy 1: B2 heavy 1
light 1: B1 light 2 with D1R, R37D, D41K, E122K, S130R
heavy 2: QVQLVQSGAEVKKPGASVKVSCKASGYTFTSYYIHWVRYAPGQGLDWMGIINPSGGITGYAQKLQGRVTMTRDTSTTTVYMELSSLRSDDTAVYYCARGVRGNYYYYYMDVWGRGTTVTVSSASTKGPSVFPLAPSSKSTSGGTAALGCLVKDYFPEPVTVSWNSGALTSGVHTFPAVLQSSGLYSLSSVVTVPSSSLGTQTYICNVNHKPSNTKVDKKVEPKSCDKTHTCPPCPAPEAAGGPSVFLFPPKPKDTLMISRTPEVTCVVVDVSHEDPEVKFNWYVDGVEVHNAKTKPREEQYNSTYRVVSVLTVLHQDWLNGKEYKCKVSNKALPAPIEKTISKAKGQPRRPRVYTLPPSREEMTKNQVSLVCLVKGFYPSDIAVEWESNGQPENNYKTTPPVLDSDGSFFLYSVLTVDKSRWQQGNVFSCSVMHEALHNHYTQKSLSLSPG
light 2: EIVLTQSPDFQSVTPKEKVTITCRASQSIGSKLHWYQRKPDDSPKLLIKYASQSFSGVPSRFSGSGSGTDFNLTINSLEAEDAATFYCHQSSGLPYTFGQGTKLEIKRTVAAPSVFIFPPSDEQLKSGTASVVCLLNNFYPREAKVQWKVDNALQSGNSQESVTEQDSKDSTYSLSSTLTLSKADYEKHKVYACEVTHQGLSSPVTKSFNRGEC

The binders below were run against EGFR on HeLa cells (UniProt P00533 25-1210, limits assumed) (assay: cell-based or functional assay).

Binder	Max killing %	X… HeLa EC50
B1	84.1%	0.0201 nM
B2	69.5%	0.179 nM
B3	92.6%	0.0264 nM
B4	55.9%	–
B5	57%	–
B6	60.2%	–
